pKd: −log10 of the molar value.

Fc fused human IL-18BP isoform a (IL-18BPa) (human), sequence (O95998 31-194): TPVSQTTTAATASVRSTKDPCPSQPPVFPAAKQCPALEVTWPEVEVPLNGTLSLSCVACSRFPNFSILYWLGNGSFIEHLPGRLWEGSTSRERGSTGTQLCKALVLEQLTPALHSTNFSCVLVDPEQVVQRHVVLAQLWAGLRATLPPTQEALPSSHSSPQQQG

One assay has as its target His-tagged human IL-18BP (human) (UniProt O95998). Briefly: AlphaLISA of free IL-18BP.
Substance “IL-18 variant SEQ ID NO: 4 (E6K, C38A, K53A, C68A, M86C) (from UniProt Q14116 37-193) (ligand)” showed a negative-log Kd (pKd) of 7.25. Same read-out and setting: with “IL-18 variant SEQ ID NO: 4 with 30 kDa PEG (E6K, C38A, K53A, C68A, M86C-30kPEG) (from UniProt Q14116 37-193) (ligand)” the figure was 6.89.

“IL-18 variant SEQ ID NO: 5 (E6K, V11I, C38A, K53A, T63A, C68A, C76A, M86C, C127A) (from UniProt Q14116 37-193) (ligand)” gave a negative logarithm of the Kd (pKd) of 6.74. Regarding “IL-18 variant SEQ ID NO: 5 with 30 kDa PEG (E6K, V11I, C38A, K53A, T63A, C68A, C76A, C127A, M86C-30kPEG) (from UniProt Q14116 37-193) (ligand)”, the negative-log Kd (pKd) was 7.50. Substance “IL-18 variant SEQ ID NO: 6 (E6K, V11I, C38A, K53A, T63A, C68A, C76A, D98C, C127A) (from UniProt Q14116 37-193) (ligand)” had a pKd of 6.20. In the case of “IL-18 variant SEQ ID NO: 6 with 30 kDa PEG (E6K, V11I, C38A, K53A, T63A, C68A, C76A, C127A, D98C-30kPEG) (from UniProt Q14116 37-193) (ligand)”, the pKd was 7.70.

“IL-18 variant SEQ ID NO: 8 (E6K, V11I, C38A, K53A, T63A, C68A, C76A, T95C, C127A) (from UniProt Q14116 37-193) (ligand)” had a pKd of 7.21. Same read-out and setting: with “IL-18 variant SEQ ID NO: 9 (E6K, C38A, K53A, C68A, D98C) (from UniProt Q14116 37-193) (ligand)” the figure was 7.08; with “IL-18 variant SEQ ID NO: 9 with 30 kDa PEG (E6K, C38A, K53A, C68A, D98C-30kPEG) (from UniProt Q14116 37-193) (ligand)”, 6.82. Regarding “IL-18 variant SEQ ID NO: 11 (E6K, V11I, C38A, K53A, C76A, C127A) (from UniProt Q14116 37-193) (ligand)”, the pKd is 7.43. The substance “IL-18 variant SEQ ID NO: 28 (E6K, C38A, K53A, T63A, C76A, C127A) (from UniProt Q14116 37-193) (ligand)” showed a pKd of 7.35. Still for that read-out and setting: with “IL-18 variant SEQ ID NO: 28 with 30 kDa PEG (E6K, C38A, K53A, T63A, C76A, C127A, C68-30kPEG) (from UniProt Q14116 37-193) (ligand)” the figure was 7.39; with “IL-18 variant SEQ ID NO: 30 with 5 kDa PEG (E6K, V11I, C38A, K53A, T63A, C76A, C127A, C68-5kPEG) (from UniProt Q14116 37-193) (ligand)”, 7.71. Same read-out and setting: with “IL-18 variant SEQ ID NO: 30 with 10 kDa PEG (E6K, V11I, C38A, K53A, T63A, C76A, C127A, C68-10kPEG) (from UniProt Q14116 37-193) (ligand)” the figure was 7.80; with “IL-18 variant SEQ ID NO: 59 with 10 kDa PEG (E6K, C38A, K53A, C68-10kPEG) (from UniProt Q14116 37-193) (ligand)”, 7.29; with “IL-18 variant SEQ ID NO: 59 with 20 kDa PEG (E6K, C38A, K53A, C68-20kPEG) (from UniProt Q14116 37-193) (ligand)”, 7.31. Regarding “IL-18 variant SEQ ID NO: 204 (V11I, C38A, K53A, C76A, C127A) (from UniProt Q14116 37-193) (ligand)”, the negative logarithm of the Kd (pKd) is 8.05. For the substance “IL-18 variant SEQ ID NO: 205 (V11I, C38A, K53A, T63A, C76A, C127A) (from UniProt Q14116 37-193) (ligand)”, the pKd was 9.18. Same read-out and setting: with “IL-18 variant SEQ ID NO: 206 (V11I, C38A, K53A, S55A, C76A, C127A) (from UniProt Q14116 37-193) (ligand)” the figure was 8.01; with “IL-18 variant SEQ ID NO: 207 (V11I, C38A, M51G, K53A, C76A, C127A) (from UniProt Q14116 37-193) (ligand)”, 6.43; with “IL-18 variant SEQ ID NO: 208 (V11I, C38A, K53A, D54A, C76A, C127A) (from UniProt Q14116 37-193) (ligand)”, 7.59. Turning to “IL-18 variant SEQ ID NO: 209 (F2A, V11I, C38A, K53A, C76A, C127A) (from UniProt Q14116 37-193) (ligand)”, the pKd is 7.24. Same read-out and setting: with “IL-18 variant SEQ ID NO: 210 (V11I, E31A, C38A, K53A, C76A, C127A) (from UniProt Q14116 37-193) (ligand)” the figure was 9.19. Still for that read-out and setting: with “IL-18 variant SEQ ID NO: 211 (V11I, T34A, C38A, K53A, C76A, C127A) (from UniProt Q14116 37-193) (ligand)” the figure was 8.91; with “IL-18 variant SEQ ID NO: 212 (V11I, D35A, C38A, K53A, C76A, C127A) (from UniProt Q14116 37-193) (ligand)”, 8.54. “IL-18 variant SEQ ID NO: 213 (V11I, S36A, C38A, K53A, C76A, C127A) (from UniProt Q14116 37-193) (ligand)” gave a negative-log Kd (pKd) of 8.95. The same measure, in the same setting: with “IL-18 variant SEQ ID NO: 214 (V11I, D37A, C38A, K53A, C76A, C127A) (from UniProt Q14116 37-193) (ligand)” the figure was 8.34; with “IL-18 variant SEQ ID NO: 215 (V11I, E31A, D37A, C38A, K53A, C76A, C127A) (from UniProt Q14116 37-193) (ligand)”, 8.67. Still for that read-out and setting: with “IL-18 variant SEQ ID NO: 216 (V11I, C38A, D40A, K53A, C76A, C127A) (from UniProt Q14116 37-193) (ligand)” the figure was 9.13. The substance “IL-18 variant SEQ ID NO: 217 (V11I, C38A, N41A, K53A, C76A, C127A) (from UniProt Q14116 37-193) (ligand)” had a negative-log Kd (pKd) of 7.73. Regarding “IL-18 variant SEQ ID NO: 218 (V11I, C38A, K53A, C76A, C127A, D132A) (from UniProt Q14116 37-193) (ligand)”, the pKd is 7.86. Substance “IL-18 variant SEQ ID NO: 219 (V11I, C38A, K53A, C76A, G108A, C127A) (from UniProt Q14116 37-193) (ligand)” gave a negative logarithm of the Kd (pKd) of 8.91. Still for that read-out and setting: with “IL-18 variant SEQ ID NO: 220 (V11I, C38A, K53A, C76A, H109A, C127A) (from UniProt Q14116 37-193) (ligand)” the figure was 9.26. Same read-out and setting: with “IL-18 variant SEQ ID NO: 221 (V11I, C38A, K53A, C76A, D110A, C127A) (from UniProt Q14116 37-193) (ligand)” the figure was 9.15. On the same count and under the same terms, with “IL-18 variant SEQ ID NO: 222 (K8R, V11I, C38A, C76A, Q103E, C127A) (from UniProt Q14116 37-193) (ligand)” the figure was 10.22. “IL-18 variant SEQ ID NO: 223 (K8E, V11I, C38A, C76A, Q103R, C127A) (from UniProt Q14116 37-193) (ligand)” had a pKd of 9.07. Still for that read-out and setting: with “IL-18 variant SEQ ID NO: 224 (V11I, C38A, C76A, Q103K, C127A) (from UniProt Q14116 37-193) (ligand)” the figure was 10.30.

The substance “IL-18 variant SEQ ID NO: 225 (V11I, C38A, S55H, C76A, C127A) (from UniProt Q14116 37-193) (ligand)” gave a negative-log Kd (pKd) of 10.10. Same read-out and setting: with “IL-18 variant SEQ ID NO: 226 (V11I, C38A, S55R, C76A, C127A) (from UniProt Q14116 37-193) (ligand)” the figure was 9.82.

Substance “IL-18 variant SEQ ID NO: 227 (V11I, C38A, S55T, C76A, C127A) (from UniProt Q14116 37-193) (ligand)” had a pKd of 10.70. The same measure, in the same setting: with “IL-18 variant SEQ ID NO: 228 (V11I, C38A, C76A, S105I, C127A) (from UniProt Q14116 37-193) (ligand)” the figure was 10.40; with “IL-18 variant SEQ ID NO: 229 (V11I, C38A, C76A, S105K, C127A) (from UniProt Q14116 37-193) (ligand)”, 10.30. The substance “IL-18 variant SEQ ID NO: 230 (K8L, E6K, V11I, C38A, K53A, T63A, C76A, C127A) (from UniProt Q14116 37-193) (ligand)” gave a pKd of 9.85. On the same count and under the same terms, with “IL-18 variant SEQ ID NO: 232 (E6K, V11I, C38A, I49M, K53A, T63A, C76A, C127A) (from UniProt Q14116 37-193) (ligand)” the figure was 7.59; with “IL-18 variant SEQ ID NO: 240 (E6R, V11I, C38A, K53A, T63A, C76A, C127A) (from UniProt Q14116 37-193) (ligand)”, 8.26. On the same count and under the same terms, with “IL-18 variant SEQ ID NO: 243 (Y1M, E6K, V11I, C38A, K53A, T63A, C76A, C127A) (from UniProt Q14116 38-193) (ligand)” the figure was 8.65.

A further assay has as its target Fc fused human IL-18BP isoform a (IL-18BPa) (human) (UniProt O95998). Briefly: SPR, Fc-IL-18BPa captured, 1:1 fit.
The substance “IL-18 variant SEQ ID NO: 30 with 5 kDa PEG (E6K, V11I, C38A, K53A, T63A, C76A, C127A, C68-5kPEG) (from UniProt Q14116 37-193) (ligand)” gave a negative-log Kd (pKd) of 8.32, a koff of 0.00386 s⁻¹ and a kon of 813000 M⁻¹ s⁻¹. For the substance “IL-18 variant SEQ ID NO: 30 with 10 kDa PEG (E6K, V11I, C38A, K53A, T63A, C76A, C127A, C68-10kPEG) (from UniProt Q14116 37-193) (ligand)”, the pKd is 8.17, the koff was 0.0036 s⁻¹ and the kon turned out to be 527000 M⁻¹ s⁻¹.

For the substance “IL-18 variant SEQ ID NO: 61 (E6K, C38A, K53A, C76A) (from UniProt Q14116 37-193) (ligand)”, the negative-log Kd (pKd) is 8.68, the off-rate constant (koff) is 0.0036 s⁻¹ and the on-rate constant (kon) came out at 1.74e+06 M⁻¹ s⁻¹. With “IL-18 variant SEQ ID NO: 61 with 30 kDa PEG (E6K, C38A, K53A, C76A, C68-30kPEG) (from UniProt Q14116 37-193) (ligand)”, the pKd is 7.43, the dissociation rate constant (koff) stood at 0.00382 s⁻¹ and the kon was 102000 M⁻¹ s⁻¹.

Source of the values: patent publication US20250186594A1.
